Assay results published in the DeepSol protein solubility set.

test: soluble on expression in E. coli; label from the status in PepcDB or PDB records

Soluble on expression in E. coli, not soluble:
MGSDKIHHHHHHMKEPTIVKKEAFQAIGISITTTNEKEASTEGKIPGLWNRYFHEQIMHHIPNQQTKETFAFYSNYESDETGTYQFTIGMPVSSLEDVPENMTTLTIPAATYAVFTTRKGPVAEVVCEAWEYIWKWSKGNKRAFTIDFELYDEKATDPNNAQLDIYIALA, MGSDKIHHHHHHMKEWRRNILGRELVVQYGKVAKQSSGSALVRFGDTVVLATANISDKAVEGIDFVPLTVEFQERFYAAGKIPGGFIKREGKPSESAILSARLIDRPIRPLFPKKLRNEVQVIVTVLSVDPNVPPDVVGIFAASLALNVSKIPFEGIVAGIRVGYRDGQFIALPSEEDIEKGLMDITVAGTKDAVTMVEGEAKEVTEEDMVKALRFAHSVIKELVDFQEEILSEFNVEKIPVVEPTPPEGLVEAFKDLLNKEELERRILVKVKKEREVALKEYEEQLLNQIAEKLSVTDLEGIKPFVSELYEDAVKKTMRRLIVEKGIRADGRKPTEIRPISCEVGLFPRTHGSALFTRGETQSLGIVTLGAPMDVQIIDTLLEEGVKRFMLHYNFPPFCTGEVKPLRGPSRREIGHGHLAERALKNMLPPEEEFPYTIRVVSEILESNGSSSMATVCSGSLALMDAGVPIKKHVAGIAMGLILEEDAEIILTDIIGMEDHYGDMDFKVAGTRDGITAFQMDCKVSGVSDELLMKALMQAREARMYILDRMYETISAPRPHLSKYAPIIKVTKVDPEKVADVIGPGGRVIKKIIKDFDVKVEIDDETGLVKVVGSSEENVDKAIELIREIAKEIEVGEVLEGKVTRIEPYGLFIEVRPGKIGLLHQSKVGEDMRQFLKKVKVGDTIKVQVINIDDLGRLQFKRVTEGENTQHGKTHSKRN, MGSDKIHHHHHHMKFFSAPSPATRPPMRNRLPPLNPLRAFEAAARCGTVSAAADELHVTASAVSHQIRILESTLGVALFVRSKARVKLTPEGEALLEPVGAAFDMIANATVRLDSPAAAGDLVVSTPLSLTSRWLARHIGDFLERYPGIHLKVIPSNDDRETYSPDVDVCIRYGEGNWRNRRVELLAHPALFPVVSPALMNGPDAIRKVQDLAGRTLFCEHAGSWMRWLAEANADKLPGIRILEIGNAHIGVEAAVHGQGVALGDSLSVRDDLLDGTLVRPFSAAVPSRHAYYLVTRHELADSPLVTAFTTWLRACLA, MGSDKIHHHHHHMKGEETLKKALLNIGKESPFYYYVLLGVKLVPSKNTRNLKLSFSTTGDVMLLYNPEAIGKKPLRMVQALLIHEVMHIVLQHFRIKPKDERDRKIWDLAMDAAINQYIPELAAFGVPLDVLVKEGHTTDNDTLFVLPPEWMMFENAEMYHKWILEEMERLGRYDVEVVAEFRDNVDDHSGLFEEDVPVEMILDLTKDRTKKAFNLFGNTLPSGVRREVSLSLENPELDWKTLLRRFFGVSIKADRYTTPLRPNRRYDHLPGWRNEYLPRIAAVVDTSGSIVEKELNQFISELEKISNIAGEELWLVQVDKSVTSAMKYRSGKWKDLEIVGGGSTDLQPAIDYSERVLRSEGTVVFTDGHTDVPIARRRILFVLSRYHNEEFLKEARKMYGRDAVVVLS, MGSDKIHHHHHHMKGKYRVGLISFSDGREYVHRELEGIVKKFEDEIAKTLEETGEVEVIRAKEIVWKPSIAKREARRLAEEGAEVTIFNYAVWAFPHFTVLASKFAPGPFLLFSNINPQYPGMVAMLSAAGALEQDGTKHYRMWGNIKDEKVLRKVMAFIRAGSTYKKLRGQRYGVFGGRSMGMYTAVPNVDLWNKIFGVDVEHIDQFEIVRRSQLIPDERARKGRLWIEEKAKAVHYDGKYLTPEKLELQIKSYHAVREIVEEMELDFVGIKGQLELTEHFVTMDVTETFLNDPYDWEGEHEPIVCATEADSDGALTMQIFKLIAKTPVLFADVRHYVEEYDVLDLCNSGNHATYFAARSFDPDENMKKVEFYPQTFYFPAGGAAVKHIAAPGKVTLGRLTREDGRYRFTVVPGEFVDFGEEKNYEIADSIQNNWPHAFLKMETPIDEFLAKYSSNHIHGVYGDYVEEIKTFCEIASIDFVLMK, MGSDKIHHHHHHMKHEPLELGLKIEDAILVNEKLKDFVVYKSGKPRIDFKNKEAMKEYNIAILGHVFGLDMDFHEDALIPTPINRYLFIKNIFDEKDDIKDVLEIGTGSGIISILIAKYFECNVTATDTVSDYLKIAKDNISKNNLTSKINLIDSKGKIIFDIPELKNKKFDLIISYPPYYADNSVASKRSFGGAFASEVELIGGGAYGEVFSQKIIEEGMDHLNNGGIVAIMFPEKPFERRKFVEDKILELGLTLEKSEITTGKRIRHIIKAKKE, MGSDKIHHHHHHMKHGILVAYKPKGPTSHDVVDEVRKKLKTRKVGHGGTLDPFACGVLIIGVNQGTRILEFYKDLKKVYWVKMRLGLITETFDITGEVVEERECNVTEEEIREAIFSFVGEYDQVPPAYSAKKYKGERLYKLAREGKIINLPPKRVKIFKIWDVNIEGRDVSFRVEVSPGTYIRSLCMDIGYKLGCGATAVELVRESVGPHTIEESLNVFEAAPEEIENRIIPLEKCLEWLPRVVVHQESTKMILNGSQIHLEMLKEWDGFKKGEVVRVFNEEGRLLALAEAERNSSFLETLRKHERNERVLTLRKVFNTR, MGSDKIHHHHHHMKHTEMSLTDKKIIITRAQEQTSEARKIFRKNGAEVFDLPSLVIGPPDDWAPLDDALKKISTFDWIIFSSANGVRNVEDRMREIGLSLSKISKTIQIAAVGRKTASLLSDMDAEISFVPPSFVADSLLEYFPQNQKGLKLFIPRVQTGGRSILSDSFRLNGAEVTEVAAYESSCPKDVPQKTIEALKSGEIDIIAFTSGKTVINTVSLFNKYFGGNWFKLIEKIKLVSIGPQTTISCKKLIRKPDKEAEPHDLEGLLNACLELKFN, MGSDKIHHHHHHMKIALIATEKLPVPSVRGGAIQIYLEAVAPLIAKKHEVTVFSIKDPNLADREKVDGVHYVHLDEDRYEEAVGAELKKSRFDLVHVCNRPSWVPKLKKQAPDAVFILSVHNEMFAYDKISQAEGEICIDSVAQIVTVSDYIGQTITSRFPSARSKTKTVYSGVDLKTYHPRWTNEGQRAREEMRSELGLHGKKIVLFVGRLSKVKGPHILLQALPDIIEEHPDVMMVFIGSKWFGDNELNNYVKHLHTLGAMQKDHVTFIQFVKPKDIPRLYTMSDVFVCSSQWQEPLARVHYEAMAAGLPIITSNRGGNPEVIEEGKNGYIIHDFENPKQYAERINDLLSSSEKRERLGKYSRREAESNFGWQRVAENLLSVYEKNR, MGSDKIHHHHHHMKIDDMDAFVAVIRCQSTNLAAEALQLTQPAITRRVQNFEEDLGATLLDRNTKPLKPTPMGLRVYEQCKAILREIDSLRELVANDGAPSGTLRLGVPQTLGDVVLLDALAQIREAYPQLRTQVTSGWGSSLIARMENGELDAAAALFPPGKIFPEGIASQSIARMPLRVVTAKGSAGKRSYKLKDCYTRGWVLNPDGCGFRAGLQRALSEQGLSLSINLETFGTELQLGLVANGQGLGLVPEPLLQTSRHRSALDVLNISDFKPQVDLWLFHPRYLGNLQEPVELFGEVAGHRLLG, MGSDKIHHHHHHMKIDRLISIIIVLLRRERVQAKELAEMFGVSVRTILRDVDTINLGGIPIITYQGVNGGISIAEGYRLDKSVLSAGDMATLISTLKGVAASIPDSRFDILAEKLKNPLSTSQLELLDLKSRQMIIDLSPWGTNEQLKGKITLLRQAIENYREIEFAYIDAAGTRSIRQVEPYALLLKGQSWYLFAWCLLRQDFRLFKLIRIKNLQLVNITYQPREVPMEQDYFENQWQETARPVELDLLFDKEMENVVEECFGGDIMRQDDGRIMVKVCLPENNWLYGYLLSFGGGMEVVNPPHIRSILAAIAEKIYKTYSS, MGSDKIHHHHHHMKIGILSQFPELYSTRRLVAACESRGHEAVVINTLNCYMNINSIKPSIHYQGQELTGFDAIIPRIHASVTFYGCAVVRQFEMMGVFAANDSISIARSRDKLRALQLLSRKGIGMPITGFANKPNDIPDLINMVGGAPLVIKLLEGTQGIGVVLAETKTAAESVIEAFLGLKANIMLQEYIKESNGSDIRCFVVGDKVVASMKRQGPEGDFRSNLHLGGCGEKVKITPKERKMAVAAVKAMGLVVAGVDILRSNRGPLILEVNSAPGIEGIEQTTGISVTEPIVEYIEKMVLAQKSNRPVIA, MGSDKIHHHHHHMKIGIVISGGDVSGMNNFIFQIARQANADITLFNGGIPGLLEKSHQDMAWRDLVDYSITAVPIITSGRTSRKLQRSEYESIAKKLKSLRIDVLIMAGGDGSLQFLNTLSEFEINCFGVGMTIDNDVYGSDYTIGFSTACEQIIKEVSRLRNTGRALPGRVFMVEILGGYCGELTLQSAIKCNADIALIPEAQMPLAVLAERITRKLSAQNSVVILCSEGYTKEYSPGFQGAIDTMIKQLEPQIGVRIRKTIVGYGLRSGDPTCEEIYQGTIMASEVVRCIQSGMKNKAIIINSSNKPIPIDLVSMKKRLVDTEGHHYKLAKQLNII, MGSDKIHHHHHHMKILITGATGFVGRNLVPYLFSHGFVELAIAVRDPQKAISMFESIPLTYISCERTFRQQIIDFAPEVVIHLATNFNFHSDEKSVRDIVDANILFGSLLLEAVSYTPCKFFINLGTFAEYYYNDGNFLPNTFYAATKTAFRSIIQYYQLKGDFKWINLIGYTIYGKKNDSKKIIDYLIDALNSPIPLNFTKGEQINDFIHINDVSDFFYVLLSNLNLLEDTMYTQLYLGTGKGTSIRELSYIIETVYKQKVNANWGGLSYRPYDIMYAVAPISRNLDLLKWKTKISLEEGIKMLRYE, MGSDKIHHHHHHMKILQIVPSISLIYGGPSQMVLGLAPALVKEGVEVTILTTDSNGDNGQTPLDVPLNRPIKQDGYEIIYFRCAPFRRYKFSLDLLKWLKRHAHEFDLAHIHALFSPIISAAAIVCRQQKLPYIFRPLGTLDPADLRKKKQLKQLYVAIIERQNLASAAAIHFTSEQEAKISERFGVSTPDLVIPLGVIPRQSSLKNVCSQLEIPKDVPLVLFMSRIDPKKGLNLLIPALEKLLAVGYKFHFVLAGTNPQDPDYEQKIISQIQNSPLRSHTTITGFVTGELKVSLLQAADLFVLPSYYENFGIAVAEAMVAGVPVVISDQVHICQQIRDSESGWVGATDVQALVELLQAALQNPAERQRRGLNAQKYALENFSWDAIARQTIQAYQKILANK, MGSDKIHHHHHHMKILVYGINYSPELTGIGKYTGEMVEWLAAQGHEVRVITAPPYYPQWQVGENYSAWRYKREEGAATVWRCPLYVPKQPSTLKRLLHLGSFAVSSFFPLMAQRRWKPDRIIGVVPTLFCAPGMRLLAKLSGARTVLHIQDYEVDAMLGLGLAGKGKGGKVAQLATAFERSGLHNVDNVSTISRSMMNKAIEKGVAAENVIFFPNWSEIARFQHVADADVDALRNQLDLPDNKKIILYSGNIGEKQGLENVIEAADRLRDEPLIFAIVGQGGGKARLEKMAQQRGLRNMQFFPLQSYDALPALLKMGDCHLVVQKRGAADAVLPSKLTNILAVGGNAVITAEAYTELGQLCETFPGIAVCVEPESVEALVAGIRQALLLPKHNTVAREYAERTLDKENVLRQFINDIRG, MGSDKIHHHHHHMKIQPLPPLNSLHAFESAARHLSFTLAAKELNVTQGAISRQVRLLEDYLGKALFTRTTRSMSLTPTGAQYYETVRECMLHLARATGDIRQWQGNQQVTVATSTAMASLWLLPKVSEFQSAHENIDLRIIAHDHVKDYARLDSDLALYYCNPPPKDMAVTPLFSEEIFLVCSPAYLARHPQLSSIEGLSSCTWLWLEDSQRDWVGWPEWFKRLGYEPMTPKHRVNINSYGMLIQSAISGQGVALAWGNLVDDALSTGALVKPNDVVLQTDAKFCLLESSTERGPRESVRLFRDWLMALPSVQK
